Assay results taken from the supplement of paper PMC9170038.

Tested on: MS2 coat protein
Experiment: apparent KD of MS2 coat protein; designed switch direction (-1 OFF switch, 1 ON switch): -1; higher = weaker reporter binding
Procedure, shortened: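 Designed RNA switches with common flanks were transcribed on Illumina chips by stalled E. coli RNA polymerase and titrated with SNAP-549-labelled MS2 coat protein, from 0.7 or 1.5 nM doubling to 3 µM, in Tris-HCl pH 7.5 buffer with KCl, MgCl2, BSA, DTT, tRNA and Tween-20. Steps lasted 0.8–1.5 h (lowest) to 10–20 min (highest). Titrations ran without input, with 200 uM small-molecule ligand, or with an oligonucleotide input. Normalised cluster fluorescence was curve-fitted, and apparent KD is the per-design median over clusters.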

[1] = input ligand: microRNA oligo, concentration not stated
[2] = Eterna round: R95, input ligand: FMN 200 uM
[3] = Eterna round: R95, input ligand: microRNA oligo, concentration not stated
[4] = Eterna round: R95, input ligand: none

Sequence	apparent KD of MS2 coat protein (input ligand: FMN 200 uM)	apparent KD of MS2 coat protein (input ligand: none)	apparent KD of MS2 coat protein [1]	apparent KD of MS2 coat protein [2]	apparent KD of MS2 coat protein [3]	apparent KD of MS2 coat protein [4]
UAGAAAGAAGUCAGGAUAUCAUGAGUUGCAGCUCAUGAGAAGGGACAUGAGGAUCACCCAUGUAACACGCCUCU [Eternabot (L2) Solution 62] (Eterna round: R97, puzzle: Brourd's mod of Exclusion 4)	0.0289 µM	0.0248 µM	–	–	–	–
UCAUCCGUAGGAUAUAAGAAACACAACAUGAGGAUCACCCAUGUGACCGUCAGUUAUUGCUUAGAAGGACGCGUAC [Eternabot (L1) Solution 70] (Eterna round: R97, puzzle: Exclusion 5)	0.131 µM	0.0912 µM	–	–	–	–
CCUCGUAGGGAGGAUAUCCUUUAAAUUUAAGGAGGAGAAGGCUCAACAUGAGGAUCACCCAUGUAAAAUUUAAA [-17, -14.8 kcal, A 36%] (Eterna round: R97, puzzle: Exclusion 6)	0.109 µM	0.0787 µM	–	–	–	–
CCACGGUGAGGAUAUCAAAGAUUGCGCUCGGAAGGUCAAUUUGAGAAGGCACAUGAGGAUCACCCAUGUUAGCG [Eternabot (L2) Solution 40] (Eterna round: R97, puzzle: Exclusion 4)	0.0298 µM	0.0346 µM	–	–	–	–
GAAACCAGAGGAUAUGCGAAUAAAUAAAACUUUUUUUUUUAACAUGAGGAUCACCCAUGUAGAAGGCUGCAAAU [Ex2 #34] (Eterna round: R97, puzzle: Exclusion 2)	0.0422 µM	0.0327 µM	–	–	–	–
GUUCACGUAGGAUAUACGGUUGGUGUGCGCGAAGGCCUUUGACAUGAGGAUCACCCAUGUAGAAGGACGAUGAA [EX2 C.24] (Eterna round: R97, puzzle: Exclusion 2)	0.0321 µM	0.031 µM	–	–	–	–
AGCAGACGAGGAUAUAGAUUUAGAUACAUGAGGAUCACCCAUGUAUAUAUGUAUUUAGAUUUAGAAGGCGUCUGCU [E5/15-A1] (Eterna round: R97, puzzle: Exclusion 5)	0.222 µM	0.219 µM	–	–	–	–
UUAAAUCAUGUAGGAUAUGCAAGGCGAACCUAUGCAGAAGGACAUGAGGAUCACCCAUGUGCUGCGGUCUGCGUACAGAUCGCU [JL ENG1 1.02] (Eterna round: R96, puzzle: Exclusion NG 1)	0.503 µM	0.039 µM	0.0307 µM	–	–	–
UAUAUAUAGUAAGGAUAUGUAAUUAUAUUAUAAACAGAAGGUACUGACAUGAGGAUCACCCAUGUUUUAGUGUGGGCAUGUAGA [JMF's solution 38] (Eterna round: R96, puzzle: Exclusion NG 1)	0.0859 µM	0.0977 µM	0.0601 µM	–	–	–
CAGUACUGAGGAUAUACAUGAGGAUCACCCAUGUGUUUUCUAUUAGGAAACUAGUUAUGUAGAAGGCAGUACUG [Omei Ex3 Mod of Eli 4.27 v11] (Eterna round: R97, puzzle: Exclusion 3)	0.304 µM	0.04 µM	–	–	–	–
GCACGGAGUGUAGGAUAUCUGUGCGAUUAGCUCAGAGAAGGACACAUGAGGAUCACCCAUGUGUACCUCAACACUAAUCCGUGC [Eli exng1 - 076] (Eterna round: R96, puzzle: Exclusion NG 1)	0.0105 µM	0.0101 µM	0.00888 µM	–	–	–
ACAAGCUUUUUGCUCGUCUACAUGAGGAUCACCCAUGUAGUGAGAUAGUGGUGAAGAUAGAUUGAGCGUAGUAGGUA [JR_SV3TOV1_Sub071] (puzzle: Sensor v3, turn-off variant 1)	–	–	–	0.0269 µM	0.0517 µM	0.0215 µM
UUUUGUUCAGGAUAUGUAGAAUUUAACAUGAGGAUCACCCAUGUAGAUCCUGAAUAAACUACAGAAGGGAACAUUU [Mat - Exclusion 5 - Eli Mod - D15] (Eterna round: R97, puzzle: Exclusion 5)	0.215 µM	0.0274 µM	–	–	–	–
UGGCUGCUUAUGGAGUGUGACAUGAGGAUCACCCAUGUGGUAGUAAGGAACAAGCUUUUUACACGUACUUAUAAAGC [JR_SV3TOV1_Sub012] (puzzle: Sensor v3, turn-off variant 1)	–	–	–	0.296 µM	0.0643 µM	0.438 µM
AAUACGUGAGGAUAUAGAUGAAGGAACUUGAGGAUCACCCAAGUGGCGUCUAGUUCCUGGCUAGAAGGCACAAAUA [Biedbe] (Eterna round: R97, puzzle: Exclusion 5)	0.263 µM	0.326 µM	–	–	–	–
GGCACACAUGAGGAUCACCCAUGUCAGGAUAUGUGGCGAUCGUCGAUAGACGAUAGCCACAGAAGGGACAGGCC [Mat - Exclusion 1 - Eli Mod - D22] (Eterna round: R97, puzzle: Exclusion 1)	0.11 µM	0.0699 µM	–	–	–	–
CAGGUGUUAGGAUAUCGGAGGUUGAGGCAGACGGGAAUAUUCGAGAAGGAACAUGAGGAUCACCCAUGUAGUAG [JR_Exclu4_Sub037] (puzzle: Exclusion 4)	–	–	–	–	0.0215 µM	–
GAGCCACAUGAGGAUCACCCAUGUGAGGAUAUCAUGCUUCGUAGUAAACUACGAAGUGUGAGAAGGCACAAUGG [Omei Ex1 C5] (Eterna round: R97, puzzle: Exclusion 1)	0.233 µM	0.0997 µM	–	–	–	–
GUUUUGAGACGGAGAUCCGACAUGAGGAUCACCCAUGUCUCACAAGCUUUUUGCUCGUCUUAUACUCCUCUGUUCUC [Elimod 44 - Jieux - Sensor, turn-off variant 1] (Eterna round: R97, puzzle: Sensor, turn-off variant 1)	0.017 µM	0.0176 µM	–	–	–	–
CAAUACAAGCGAAGAUCCUACAUGAGGAUCACCCAUGUGCUCGUCUUAAAAGGUACUGUGACGAAAGUCACGGUACC [Eli 87 + Mat D67 4] (Eterna round: R97, puzzle: Sensor, turn-off variant 1)	0.282 µM	0.296 µM	–	–	–	–
CUUUUGUGAGGAUAUCAGUAGUAAAAAAUUAAAAUUACUACUGAGAAGGCACAUGAGGAUCACCCAUGUUCCUC [salish99_ex4_r3_021] (puzzle: Exclusion 4)	–	–	–	–	0.0377 µM	–
AGUAGGUCUACCUUGGUGGAUCUGCAUAAUGCAAGUGUUACAUGAGGAUCACCCAUGUCCUCAUUUGCUCGUCUUAU [JL turnoff v2 99.22] (puzzle: Sensor v3, turn-off variant 2)	–	–	–	0.0394 µM	0.105 µM	0.0435 µM
AUAUUUAAUGAGGAUAUCGUUGUAGGUAUAUAGCGAGAAGGCAUUACAUGAGGAUCACCCAUGUAGUGUGGGUU [JR_Ex6_Sub021] (Eterna round: R97, puzzle: Exclusion 6)	0.0787 µM	0.0237 µM	–	–	–	–
CAGUACUGAGGAUAUACAUGAGGAUCACCCAUGUGAGAGUUACUAGUGAGGUCGAUUAGUAGAAGGCAGUACUG [Mat X3R4 m29] (Eterna round: R97, puzzle: Exclusion 3)	0.215 µM	0.0396 µM	–	–	–	–
UAUAAAACAUAGGAUAUCGAAAUUAUCAUUUAACGAGAAGGAUGAACAUGAGGAUCACCCAUGUGGUAUCAUGG [Mat - Exclusion 6 - JL Mod - D10] (Eterna round: R96, puzzle: Exclusion 6)	–	–	0.328 µM	–	–	–
